# Test results: the nanobody polyreactivity screen of Harvey et al. (2022)
# Assay: yeast display, Sf9 membrane polyspecificity reagent, FACS + sequencing; frameworks hold sequencing errors
# Summary of the method: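 Nanobodies came from a synthetic yeast display library in Saccharomyces cerevisiae BJ5465, induced with galactose for 36–48 hours and stained for 1 hour at 4 °C with 10% biotinylated, detergent-solubilized Sf9 membrane reagent. Cells were enriched on streptavidin microbeads and then FACS-sorted, with low and high (top ~1%) gates set on anti-HA fluorescence for expression and streptavidin fluorescence for reagent binding. Each polyreactivity label reflects the gate a clone came from. Genes were amplified by colony PCR, sequenced by MiSeq 2 × 250 and filtered by CDR length.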
row,Sequence,polyreactivity (PSR sort gate)
1,QVQLVESGGGLVQAGGILRLSSAASGFTFGYYAMGWYRQAPGTQRELVAAINWSGGRTYYADSVKGRFTISRDNAKNTVYLQMNSLKPEDTAVYYCAADPKKGRQMYYWGQGTQVTVSS,high polyreactivity
2,QVQLVESGGGLVQAGGSLRLSCAASGRIFYDNTMGWYRQAPGKERELVAVISWSTGGTYADSVKGRFTISRDNAKNTVYLQMNSLKPEDTAVYYCATPLGYGPDLDYWGQGTQVTVSS,low polyreactivity
3,QVQLEESGGGLVQAGGSLRLSCAASGFIFPHYTMGWYRQAPGKERELVAAISSSGGSTYYADSVKGRFTISRDNAKKTVYLQMNSLKPEDTAVYYCPGPLPYYGQYDYWGQGTQVTVSS,low polyreactivity
4,QVQLVESGGGLVQAGGSLRLSCAASGYIFGSYAMGWYRQAPGKERELVASITRVDSTNYADSVKGRFTISRDNAKNTVYLQMNSLKAEDTAVYYCAADITTPAYATYDYWGQGTQVTVSS,low polyreactivity
5,QVQLVESGGGLVQAGGSLRLISAASGSTFPPYSMGWYSQAPGKEWEVVADITRRGASTYYADSVKVRFTISRDNAKNTVYLQMNSLKPEDTAVYYCAARYYDQYYSGFDYWGQGTQVTVSS,high polyreactivity
6,QVQLQESGGGLVKAGGSLRLSCAASGNISNHNDMGWYRQAPGKEREFVAGITAGGNTNYADSVKGRFTISRDNAKNTVYLQMNSLKPEDTAVYYCAAYPDYAKSYGYWGQGTQATVSS,low polyreactivity
7,QVQLVESGGGLVQAGGSLRLSCAASGFTFYRNAMGWYRQAPGKERELVAAISWRGSSTYYADSVKGRFTISRDNAKNTVYLQMNSLKPEDTAVYYCATEYPYWYYYRMDYWGQGTQVTVSS,high polyreactivity
8,QDQLVESGGGLVQAGGSLRLSCAASGSTFEYYAMGWYRQAPGKERELVAAISSGPSTTYADSVKGRFTISRDNAKNTVYLQMNSLKPEDTAVYYCARRDGTTQALFGYDYWGQGTQVTVSS,low polyreactivity
9,QVQLVESGGGLVQAGGSHRLTCAASGSTFFAYAIGCYRPAPGTERELVAAISSRGGRTYYADSVKGRFTISRDNAQNTVYLQMNSLKPEDTAVYYCAVGPGLAQSYDYWGQGTQVTVSS,high polyreactivity
10,QVQLVESGGGLVQAGGSLRLSCAASGRSSTRNAMGWYRQAPGKERELVAAITRSGGGTYYADSVKGRFTISRDNAKNTVYLQMNSLKPEDTAVYYCAADQLSPSDGYEYWGQGTQVTVSS,low polyreactivity
11,QVQLEESGGGLVQAGGSLRLSCAASGRTFYRYAMGWYRQAPGKERELVATISSRGTSTYYADSVKGRFTISRDNAKNTVYLQMNSLKPEDTAVYYCAVRGYAAGRHGYDYWGQGTQVTVSS,high polyreactivity
12,QVHLVQSGGGIVQAGGSLRLSCPASGSIFGYYAMGWYRQPRGKERELVAAITGGGRTYYADSVKGRFTISRDNAKNTVYLQMNSLKPEDTGVYYCTARSTSYRSYWRDYWGQGTHVTVSS,high polyreactivity
13,QVQLVESGGGLVQAGGSLRLSCAASGFIFDVYAMGWYRQAPGNERELVATISSGDSTYYADSVKGRFTISRDNAKNTVYLQMNSLKPEDTAVYYCNTTEHKYVSSFEYGYWGQGTQVTVSS,low polyreactivity
14,QVQLQESDGGLVQAGGSLRLSCAASGSISPQYYMGWYRQEPGKEREYVAISKGTTTYYADSVKGRLTISRVNAKNTVYLQMNRLKPEDTAVYCCAAGRWLQKVHAYWDQGTQVTVSS,low polyreactivity
15,QVQLVESGGGLVQAGGSLRLSCAASGSILYRYTMGWYRLAPGTERELVAAITKRGGRTYYADSVKGRITISRDNAMNTVYLQMNSLKPEDTAVFYCYALLTGGYQDSYPDDYWGQGTHVTVSS,high polyreactivity
16,QVHLVESGGGLVQARGSLRLSCAAYGRIFGRNAMGWYRQAPGKERELVAVITFSGGDTFYADSVKGRFTISRDNAKNTVYLQMNSLKPEDTAVYYCAKSQGFETYRNVSIFGYWGQGTQVTVSS,low polyreactivity
17,QVQLVESGGGLVQAGGSLRLSCAASGPNFTKYAMGWYRPAPGKERELVAGISSRGTSTYYADSVKGRFTISRDNAKNTVYLQMNSLKPEDTAVYYCNKDSKSRFTYDYWGQGTQVTVSS,high polyreactivity
18,QVQLVESGGGLVQAGGSLRLSCAASGIIFHFNEMGWYRQAPGKERELVAAITSGGSTNYADSVKGRFTISRDNAKNTVYLQMNSLKPEDTAVYYCAARRGLRLFAYRHGYWGQGTQVTVSS,low polyreactivity
19,QVQLVESGGGLVQAGGSLRLSCAASGTFSYYAMGWYIQAPGKERELVATIRSGGRTYYADSVKGRFTISRDNAKNTVYLQMNSLKPEDTAVYYCAKTGFLGLRQYGYWGQGTRVTVSS,high polyreactivity
20,QDQLVESGGGLVQAGGSLRLSCAASGFIFGRYTMGWYRQAPWKERELVAAISGSDVSTYYADSVKGRFTISRDNAKNTVYIQMNSLKPEDTAVYYCAADAPWAYYEYDYWGQGTQVTVSS,low polyreactivity
21,QVQLVESGGGLVQAGGSLRLSCAASGRIYRYYAMGWYRQAPGKERELVAAITRSGGTTYYADSVKGRFTISRDNAKYTVYLQMNSLKPEDTAVYYCNAGVGQKYDYWGQVTQVTVSS,high polyreactivity
22,QVQLVESGGGLVQAGGSLRLSCAASGRIFVNNAMGWYRQAPGKEREFVAGISFSGDGRTYYADSVKGRFTISRDNAKNTVYLQMNSLKPEDTAVYYCAAPHRSRTHELDYWGQGTQVTVSS,low polyreactivity

row,Sequence,polyreactivity (PSR sort gate)
1,QVQLVESGGGLVQAGGSLRLSCAASGRTFAFNAMGWCRQAPGKDRELVAAISQGADSTYYADSVKGRFTISRDNAKNPVDLQMNSLKPEDTAVYYCAAEAQYNFYSYDYWGQGTQVTVSS,low polyreactivity
2,QVQLVESVGGLVQAGGSLRLSCAASGNTFSYNAMGWYRQAPGKERELVAAIRWSGGSTYYADSVKGRFTISRDNAKNTVYLQMNSLKPEDTAVYYCNARYASTNYGWFSYYWGQGTQVTVSS,high polyreactivity
3,QVQLVESGGGLVQAGGSLRLSCAASGSTFSSYAMGWYRQAPGKERELVAAITSRGSRTFYADSVKGRFTISRDNAKNTVYLQMNSLKPEDTAVYYCAAYFRIGTFGQYDYWGQGTQVTVSS,high polyreactivity
4,QVQLVESGGGLVQAGGSLRLSCAASGITFVRYAMGWYRQAPGKERELVAVISRGGITNYADSVKGRFTISRDNAKNTVYLQMNSLKPEDTAVYYCAVRGRSYVRTYDYWGQGTQVTVSS,high polyreactivity
5,QVQLVESGGGLVQAGGSLRLTCAASGSTFTYNGMGWYRQAPGKERELVAAITKRGGSTYYADSVKGRFTISRDNAKNTVYLQMNSLKPEETAVYYCAKPAASGFRWDSGYWGQGTQVTLSS,high polyreactivity
6,QVQLVESGGGLVQAGGSLRLSCAASGIILYYYAMGWYRQAPGKERELVAAISSGGNTYYADSVKGRFTISRDNAKNTVYLQMTSLKPEDTAVYYCAAVTVIGGEYDYWGQGTQVTVSS,low polyreactivity
7,QVQLVESGGGLVQAGGSLRLSCAASGRTFGSNAMGRYRQAPGKDRELVAAISVRGGRTYYADSVKGRFTISRDIAKNTGYLQMNSLKPEDTAVYYCNAVYRTYEYYWGQGTQVTVSS,high polyreactivity
8,QVQLVESGGGLVQAGGSLRISCAASGSIFPAYDMGWYRQAPGKERELVAAITRGGSTDYADSVNGRFTISRDNAKNTVYLQMNSLKPEDTAVYFCAKRGYYYYHYVSGKPEDYWGQGTQVTVSS,low polyreactivity
9,QVQLVESGGGLVQAGGSLRLSWAASGSIFYWNAMGWYRQAPGKERELVATITITTSTNYADSVKGRFTISRDNAKNTVYLQMNSLKPEDTAVYYCNAGAPYRYLDEYNYWGQGTQVTVSS,low polyreactivity
10,QVQLVESGGGLVQAGGTLRISCAASGSIFWYYAMGSYRQAPGKERELVAAISKSGGSTYYADSVKVRFTISRDNAKNTVYLQMNSLKQEDTAVYYCAKYGPVIDGVDYWGQGTQVTVSS,low polyreactivity
11,QVQLVESGGGLVQAGGSLRLSCAASGSIFLLYAMGWYRQAPGKERELVARISWSGDNTRYADSVKGRFTISRDNEKNTVYLQMNSLKPEDTAFYYCNAVTFSWDYGYWGQGSQVTVSS,low polyreactivity
12,QVQLVESGGGLVQAGGSLRLSCAASVYTFKSYAMGWYRQAPGKERELVASISNDGSTNYADSVKGRFTISRDNAKNTVYLQMNSLKPEDTAVYYCNADFYDAPSQWARTGFDYWGQGTQVTVSS,low polyreactivity
13,QVQHVESGGGLVQARGSLRLSCAASGSIFWYNAMGWYRQAPGTVRELVAAINWSGGSTFYADSVKGRFTISRDNAKNTVYLQMNSLKPEDTAVDYCAADDWYTGYDYWGQGTQVTVSS,high polyreactivity
14,QVQLVESGGGLVQAGGSLRLSCAASGRTIGLYDMGWYRQAHGKERELVAGITRRGGRTYYADSVKGRFTISRDNAKNSVYLQMNSLKPEDTAVYYCAAGTIYLRHAQSPFDYWGQGTQGTVSS,high polyreactivity
15,QVQLVESGGGLVQAGGSLRLSCAASGSIFTSYAMGWYRQAPGKERELVAGITRGGRTYYADSVKGRFTISRDNAKNTVYLQMNSLKPEDTAVYYCAALSSRHFVFTVDYWGQGTQVTVSS,high polyreactivity
16,QVQLVESGGGLVQAGGSLRLSCADSGFISGGNDMGWNRQAPGKEREFVAAIDNTGSTYYADSVKGRFTISRDNAKNTVYLQMNSLKPEDSAVYYCNAEVSEDYVDNDFWGQGTQVTVSS,low polyreactivity
17,QVQLVESGGGLVQAGGSLRLSCAASGRIFGWYAMGSYRQAPGKEREFVAAITRRGGRTYYADSVKGRFTISRDNEKNNVYLQMNSLKPEDTAVYYCAVKYVRIGGVGPIVIYNYWGQGTQVTVSS,high polyreactivity
18,QVQLVESGGGLVQAGGSLRLSCAASGRIFYGNVMGWYRQAPGKERELVAAISGGGSTNYADSVKGRFTISRDNAKNTVYLQMNSLKPEDTAVFYCAADSRPWGSSMDYWGQGTKVTVSS,low polyreactivity
19,QVQLVESGGGLVQTGGSLRVSCAASGLIFSRSAMGWYRQAPGKVRELVAAISSRGGSTYYADSVKGRFTISRDNAKNTVYLQMKSLIPEDTAVYFCDASRSYVHPVIGYGYWGQGTQVTVSS,high polyreactivity
20,QVQLVESGGGLVQAGGSLRLSCAASGFTFRYYTMGWYRQAPGKERELVASITWRGGSTYYADSVKARFTISRDNAKNTVYLQMNSMKPEDTAVYYCNAERPYQYYPGIYRWYYYWGQGTQVTVSS,low polyreactivity
21,QVQLVESGGGLVQAGGSLRLTCSASGIILYYYAMGWNRQAPGKERELVAAISSSGGSTYYADSVKGRFTFSRDNAKNTVYLQMKSLKPEDTAVYYCAAWVVPLRYAYGRLTYNYWGQGTQVTVSS,high polyreactivity
